The values below come from patent publication US20160185837A1, “GIP AND GLP-1 RECEPTOR DUAL-AGONISTS FOR THE TREATMENT OF DIABETES” (Medimmune Limited, priority 2013, published 2016).

Common to all, as to experiment: cell-based or functional assay
The target of assay [1] is T1, rat GIP receptor (rat) (UniProt P43219).
T1 sequence (looked up): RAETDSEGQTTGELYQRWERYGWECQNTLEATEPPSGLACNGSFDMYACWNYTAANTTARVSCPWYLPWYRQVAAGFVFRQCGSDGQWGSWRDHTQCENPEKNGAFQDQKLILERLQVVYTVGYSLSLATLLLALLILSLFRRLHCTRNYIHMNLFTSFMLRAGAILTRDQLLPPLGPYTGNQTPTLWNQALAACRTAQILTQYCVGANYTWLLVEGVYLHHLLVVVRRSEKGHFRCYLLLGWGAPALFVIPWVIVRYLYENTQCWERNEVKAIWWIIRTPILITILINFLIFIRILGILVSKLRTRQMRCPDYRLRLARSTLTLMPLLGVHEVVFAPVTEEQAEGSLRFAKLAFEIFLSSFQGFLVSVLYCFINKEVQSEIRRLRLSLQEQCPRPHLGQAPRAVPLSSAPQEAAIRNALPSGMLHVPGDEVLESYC

Assay [2] concerns the target mouse GLP-1 receptor (mouse) (UniProt O35659).
Assay [3] concerns the target T2, human GIP receptor (human) (UniProt P48546).
T2 sequence (looked up): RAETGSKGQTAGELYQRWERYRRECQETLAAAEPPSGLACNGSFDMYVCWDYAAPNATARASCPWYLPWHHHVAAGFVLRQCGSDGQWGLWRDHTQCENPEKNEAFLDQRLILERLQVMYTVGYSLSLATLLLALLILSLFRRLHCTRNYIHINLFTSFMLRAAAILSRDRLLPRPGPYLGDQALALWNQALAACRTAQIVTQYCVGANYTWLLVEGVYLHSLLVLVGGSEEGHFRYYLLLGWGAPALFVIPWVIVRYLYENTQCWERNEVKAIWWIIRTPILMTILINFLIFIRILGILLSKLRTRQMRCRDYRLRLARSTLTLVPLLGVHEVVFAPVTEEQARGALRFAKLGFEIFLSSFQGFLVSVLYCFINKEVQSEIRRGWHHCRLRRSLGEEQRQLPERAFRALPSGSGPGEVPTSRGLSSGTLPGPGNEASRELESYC

The target of assay [4] is human glucagon receptor (human) (UniProt P47871).
Chain of human glucagon receptor (human) (P47871 26-477): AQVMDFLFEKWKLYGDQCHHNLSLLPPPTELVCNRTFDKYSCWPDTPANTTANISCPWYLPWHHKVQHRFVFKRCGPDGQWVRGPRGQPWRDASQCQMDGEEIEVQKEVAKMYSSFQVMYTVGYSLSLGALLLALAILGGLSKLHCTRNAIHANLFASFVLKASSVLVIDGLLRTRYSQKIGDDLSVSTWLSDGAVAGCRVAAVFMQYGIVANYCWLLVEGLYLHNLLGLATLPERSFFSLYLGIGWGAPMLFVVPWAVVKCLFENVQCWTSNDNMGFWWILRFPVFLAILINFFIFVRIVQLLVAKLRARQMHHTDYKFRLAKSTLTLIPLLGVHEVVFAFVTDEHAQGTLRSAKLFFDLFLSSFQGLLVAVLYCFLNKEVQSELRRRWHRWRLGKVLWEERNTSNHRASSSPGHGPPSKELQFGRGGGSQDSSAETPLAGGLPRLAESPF
The target in assay [5] is human GLP-1 receptor (human) (UniProt P43220).
Chain of human GLP-1 receptor (human) (P43220 24-463): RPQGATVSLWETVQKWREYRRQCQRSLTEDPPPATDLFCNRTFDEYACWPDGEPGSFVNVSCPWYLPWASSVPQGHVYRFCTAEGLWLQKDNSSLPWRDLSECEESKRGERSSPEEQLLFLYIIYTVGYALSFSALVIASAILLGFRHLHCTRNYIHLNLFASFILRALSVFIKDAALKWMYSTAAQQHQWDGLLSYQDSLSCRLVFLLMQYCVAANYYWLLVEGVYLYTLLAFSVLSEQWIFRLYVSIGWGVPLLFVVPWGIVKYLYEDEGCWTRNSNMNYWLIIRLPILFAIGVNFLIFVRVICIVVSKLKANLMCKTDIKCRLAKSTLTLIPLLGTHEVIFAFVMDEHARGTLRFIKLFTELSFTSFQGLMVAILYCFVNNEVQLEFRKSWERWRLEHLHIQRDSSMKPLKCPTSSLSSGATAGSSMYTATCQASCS
The target of assay [6] is T3, mouse GIP receptor (mouse) (UniProt Q0P543).
T3 sequence (looked up): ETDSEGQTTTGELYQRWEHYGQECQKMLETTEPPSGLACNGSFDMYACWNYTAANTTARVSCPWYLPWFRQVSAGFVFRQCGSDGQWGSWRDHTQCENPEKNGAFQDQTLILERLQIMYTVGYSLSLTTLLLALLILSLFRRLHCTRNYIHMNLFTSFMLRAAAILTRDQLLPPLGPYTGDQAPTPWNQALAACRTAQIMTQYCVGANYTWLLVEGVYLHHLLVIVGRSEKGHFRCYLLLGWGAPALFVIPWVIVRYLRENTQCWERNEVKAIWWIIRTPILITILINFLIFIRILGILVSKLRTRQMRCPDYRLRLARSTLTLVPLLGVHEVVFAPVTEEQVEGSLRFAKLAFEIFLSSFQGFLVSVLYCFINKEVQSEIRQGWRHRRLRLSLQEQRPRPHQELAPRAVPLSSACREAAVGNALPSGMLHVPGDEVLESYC

Assay [7] has as its target rat GLP-1 receptor (rat) (UniProt P32301).

Chain of mouse GLP-1 receptor (mouse) (O35659 22-463): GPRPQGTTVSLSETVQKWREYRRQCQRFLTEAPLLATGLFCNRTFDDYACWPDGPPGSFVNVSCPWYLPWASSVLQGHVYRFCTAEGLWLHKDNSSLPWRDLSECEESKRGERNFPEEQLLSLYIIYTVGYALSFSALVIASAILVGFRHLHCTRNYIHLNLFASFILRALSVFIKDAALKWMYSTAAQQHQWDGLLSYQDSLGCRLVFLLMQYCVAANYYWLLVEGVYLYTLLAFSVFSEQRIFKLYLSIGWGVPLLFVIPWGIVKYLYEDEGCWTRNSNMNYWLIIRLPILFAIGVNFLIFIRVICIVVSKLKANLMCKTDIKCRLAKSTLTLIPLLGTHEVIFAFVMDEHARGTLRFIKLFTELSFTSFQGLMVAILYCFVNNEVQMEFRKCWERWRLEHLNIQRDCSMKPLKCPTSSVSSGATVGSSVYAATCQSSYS
Chain of rat GLP-1 receptor (rat) (P32301 22-463): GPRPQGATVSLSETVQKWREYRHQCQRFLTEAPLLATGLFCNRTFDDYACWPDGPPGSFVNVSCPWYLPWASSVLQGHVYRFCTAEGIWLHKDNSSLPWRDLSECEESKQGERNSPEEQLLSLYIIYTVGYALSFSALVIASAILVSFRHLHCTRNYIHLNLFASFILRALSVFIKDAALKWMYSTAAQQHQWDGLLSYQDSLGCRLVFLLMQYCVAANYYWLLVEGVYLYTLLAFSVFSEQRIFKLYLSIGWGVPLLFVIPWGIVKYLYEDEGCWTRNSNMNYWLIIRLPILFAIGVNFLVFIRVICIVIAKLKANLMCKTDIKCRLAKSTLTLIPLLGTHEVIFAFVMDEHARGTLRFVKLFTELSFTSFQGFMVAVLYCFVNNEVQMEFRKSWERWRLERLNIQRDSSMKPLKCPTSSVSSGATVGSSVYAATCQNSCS

B1: IP402 (Fc fusion)
chain: YSEGTFISDYSIAMDKIHQQDFVNWLLAQKGSGGGGSGGGGSGGGGSGGGGSGGGGSGGGGSGGGGSACPPC
As for B1, the cAMP EC50 came out at 0.0068 nM in assay [1]; 850 nM in assay [2]; 0.038 nM in assay [3]; 200 nM in assay [4]; 31 nM in assay [5]; 0.033 nM in assay [6]. The molecule also had a cAMP EC50 in assay [7] of 11 nM.

B2: IP392 (Fc fusion)
chain: YSEGTFISDYSIAMDKIHQQDFVNWLLAQKGAANDWKHNITQGGGGSGGGGSGGGGSGGGGSGGGGSGGGGSACPPC
B2: the cAMP EC50 in assay [1] was 0.0076 nM; in assay [2] it was > 17100 nM; in assay [3], 0.0026 nM; in assay [4] it was 530 nM; in assay [5], 2800 nM; in assay [6], 0.031 nM. The cAMP EC50 in assay [7] was found to be 720 nM.

B3: IP398 (Fc fusion)
chain: YSEGTFISDYSIAMDKIHQQDFVNWLLAQKGKKNDWKHNITQGGGGSGGGGSGGGGSGGGGSGGGGSGGGGSACPPC
With B3, the cAMP EC50 was 0.0056 nM in assay [1]; > 17200 nM in assay [2]; 0.0037 nM in assay [3]; 1600 nM in assay [4]; 9500 nM in assay [5]; 0.012 nM in assay [6]. This molecule also displayed a cAMP EC50 in assay [7] of 14000 nM.

B4: IP247 (Fc fusion)
chain: YSEGTFTSDYSKLLEKIHQQLFIEWLVKGPAAAGGSGSTASSGSGSATGGGGAATHTCPPCPAPEF
In the case of B4, the cAMP EC50 was 0.03 nM in assay [1]; 280 nM in assay [2]; 0.019 nM in assay [3]; > 420 nM in assay [4]; 63 nM in assay [5]; 2.3 nM in assay [6]. In assay [7], the cAMP EC50 is 11 nM.

B5: IP337 (Fc fusion)
chain: YSEGTFISDYSIAMDKIHQQDFVNWLLAQKGGGGGSGGGGSGGGGSGGGGSGGGGSGGGGSGGGGSA
B5: the cAMP EC50 is 0.0052 nM in assay [1]; > 1150 nM in assay [2]; 0.0062 nM in assay [3]; 200 nM in assay [4]; > 2300 nM in assay [5]; 0.013 nM in assay [6]. In addition, the cAMP EC50 in assay [7] is > 1150 nM.

B6: IP275 (Fc fusion)
chain: YSEGTFTSDYSKLLEKEAQRLFIEWLLKGPGGGGGSGGGGSGGGGSGGGGSATHTCPPC
Turning to B6, the cAMP EC50 in assay [1] is 0.014 nM; in assay [2], 1.7 nM; in assay [3] it was 0.0087 nM; in assay [4] it was 230 nM; in assay [5], 0.92 nM; in assay [6] it was 0.26 nM. In assay [7], this molecule displayed a cAMP EC50 of 0.062 nM.

B7: IP387 (Fc fusion)
chain: YSEGTFISDYSIAMDKIHQQDFVNWLLAQKGGGGGSGGGGSGGGGSGGGGSGGGGSGGGGSGGGGSGGGGSACPPC
With B7, the cAMP EC50 in assay [1] is 0.0075 nM; in assay [2], > 1470 nM; in assay [3], 0.0045 nM; in assay [4], 220 nM; in assay [5], 370 nM; in assay [6], 0.019 nM. The molecule further came in with a cAMP EC50 in assay [7] of 110 nM.

B8: IP338 (Fc fusion)
chain: YSEGTFISDYSIAMDKIHQQDFVNWLLAQKGGGGGSGGGGSGGGGSGGGGSGGGGSGGGGSGGGGSGGGGSAN
For B8, the cAMP EC50 is 0.005 nM in assay [1]; > 945 nM in assay [2]; 0.0052 nM in assay [3]; 190 nM in assay [4]; > 1890 nM in assay [5]; 0.012 nM in assay [6]. Besides, the cAMP EC50 in assay [7] was > 945 nM.

B9: IP389 (Fc fusion)
chain: YSEGTFISDYSIAMDKIHQQDFVNWLLAQKGGGGGSGGGGSGGGGSGGGGSGGGGSGGGGSGGGGSACPPC
B9: the cAMP EC50 was 0.0072 nM in assay [1]; 1300 nM in assay [2]; 0.0027 nM in assay [3]; > 269 nM in assay [4]; 65 nM in assay [5]; 0.017 nM in assay [6]. Moreover, the cAMP EC50 in assay [7] is 9.9 nM.

B10: IP344 (Fc fusion)
chain: YSEGTFISDYSIAMDKIHQQDFVNWLLAQKGGGGGSGGGGSGGGGSGGGGSGGGGSA
Consider B10, for which the cAMP EC50 in assay [1] is 0.0062 nM; in assay [2], > 8550 nM; in assay [3], 0.0053 nM; in assay [4], 200 nM; in assay [5], > 8550 nM; in assay [6], 0.011 nM. In assay [7], the cAMP EC50 is > 8550 nM.

B11: IP336 (Fc fusion)
chain: YSEGTFISDYSIAMDKIHQQDFVNWLLAQKGGGGGSGGGGSGGGGSGGGGSGGGGSGGGGSA
On to B11, for which the cAMP EC50 is 0.0047 nM in assay [1]; > 2260 nM in assay [2]; 0.005 nM in assay [3]; 200 nM in assay [4]; > 4510 nM in assay [5]; 0.012 nM in assay [6]. Moreover, the cAMP EC50 in assay [7] was > 2260 nM.

B12: IP335 (Fc fusion)
chain: YSEGTFISDYSIAMDKIHQQDFVNWLLAQKGGGGGSGGGGSGGGGSGGGGSA
In the case of B12, the cAMP EC50 was 0.0067 nM in assay [1]; > 2740 nM in assay [2]; 0.0058 nM in assay [3]; 280 nM in assay [4]; > 5480 nM in assay [5]; 0.02 nM in assay [6]. Moreover, in assay [7], the cAMP EC50 is > 2740 nM.

B13: IP209 (Fc fusion)
chain: YSEGTFTSDYSSYMERQAIDEFIAWLLKGGAAAGGSGSTASSGSGSATGGGGAATHTCPPCPAPEF
On to B13, for which the cAMP EC50 in assay [1] amounted to 0.22 nM; in assay [2] it was 0.84 nM; in assay [3], 0.058 nM; in assay [5], 0.23 nM; in assay [6] it was 4.9 nM; in assay [7], 0.075 nM. The cAMP EC50, Batch 2 in assay [1] is 1.3 nM; in assay [2] it was 1.6 nM; in assay [3], 0.028 nM; in assay [4] it was > 6270 nM; in assay [5], 0.2 nM; in assay [6], > 6300 nM. Besides, the cAMP EC50, Batch 2 in assay [7] came to 0.091 nM.

B14: IP351 (Fc fusion)
chain: YSEGTFISDYSIAMDKIHQQDFVNWLLAQKPSSGAPPPSGGGGSGGGGSGGGGSGGGGSACPPC
For the molecule B14, the cAMP EC50 in assay [1] came to 0.0063 nM; in assay [2] it was 820 nM; in assay [3] it was 0.0036 nM; in assay [4] it was 130 nM; in assay [5], 110 nM; in assay [6] it was 0.0098 nM. In addition, in assay [7], the cAMP EC50 stood at 210 nM.

B15: IP386 (Fc fusion)
chain: YSEGTFISDYSIAMDKIHQQDFVNWLLAQKGGGGGSGGGGSGGGGSGGGGSACPPC
As to B15, the cAMP EC50 in assay [1] is 0.0085 nM; in assay [2], > 16600 nM; in assay [3], 0.0034 nM; in assay [4] it was 540 nM; in assay [5], > 9130 nM; in assay [6], 0.03 nM. Also, the cAMP EC50 in assay [7] was > 16600 nM.

B16: IP321 (Fc fusion)
chain: YSEGTFISDYSIAMDKIHQQDFVNWLLAGGAAAGGSGSTASSGSGSATGGGGAATHTCPPC
On to B16, for which the cAMP EC50 in assay [1] was 0.0079 nM; in assay [2], 330 nM; in assay [3] it was 0.0096 nM; in assay [4], 24 nM; in assay [5], 72 nM; in assay [6], 0.017 nM. In assay [7], the cAMP EC50 is 22 nM.
